From patent US20260115256A1 (HANGZHOU SCIWIND BIOSCIENCES, published 2026)
*1 amine or outer side, *2 acyl side, *3 side chain or, on linkers, in order; H or OH if unused. Bridges are numbered along the chain shown (N, C = ends). Primed or numbered codes have the meaning given here. Where no end group is shown, it is not given here. Side-chain parts run from the residue outwards. [ ]: non-standard residue; d: D form. The star is where a group is joined. C20 diacid = O=C(O)CCCCCCCCCCCCCCCCCCC(=O)*; γGlu = O=C(O)[C@H](CCC(=O)[*:2])N[*:1]; βAsp = O=C(O)[C@H](CC(=O)[*:2])N[*:1]; Hyp = O=C(O)[C@@H]1C[C@@H](O)CN1; Aad = N[C@@H](CCCC(=O)O)C(=O)O; αMeP = C[C@@]1(C(=O)O)CCCN1; Orn = NCCC[C@H](N)C(=O)O; Aze = O=C(O)[C@@H]1CCN1; Dab = NCC[C@H](N)C(=O)O; Inp′ = not defined here; Pip′ = not defined here; Dap = NC[C@H](N)C(=O)O; AEEA = NCCOCCOCC(=O)O

T1: human amylin receptor (AMY3) on CHO-K1/Ga15/AMY3 cells (human, UniProt P30988 25-474; O60896 24-148)
T1 sequence (looked up) 1: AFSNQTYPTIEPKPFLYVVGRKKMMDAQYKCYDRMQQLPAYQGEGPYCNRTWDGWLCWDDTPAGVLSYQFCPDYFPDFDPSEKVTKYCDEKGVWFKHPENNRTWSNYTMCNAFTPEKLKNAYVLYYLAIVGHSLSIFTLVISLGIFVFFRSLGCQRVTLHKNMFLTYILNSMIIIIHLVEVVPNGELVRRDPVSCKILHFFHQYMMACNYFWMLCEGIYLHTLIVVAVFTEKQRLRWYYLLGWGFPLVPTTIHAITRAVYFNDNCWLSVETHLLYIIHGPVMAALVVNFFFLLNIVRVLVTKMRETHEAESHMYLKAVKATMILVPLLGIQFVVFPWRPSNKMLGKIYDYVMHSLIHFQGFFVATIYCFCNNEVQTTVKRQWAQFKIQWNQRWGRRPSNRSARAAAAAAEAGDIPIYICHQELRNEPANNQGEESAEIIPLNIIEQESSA
T1 sequence (looked up) 2: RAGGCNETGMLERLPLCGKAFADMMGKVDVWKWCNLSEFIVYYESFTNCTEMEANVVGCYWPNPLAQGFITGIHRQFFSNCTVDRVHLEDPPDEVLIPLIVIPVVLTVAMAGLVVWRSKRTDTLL

B1: PD054 (peptide)
peptide: CNTATCATQRLADFLRHSSNNLK([γGlu-C20 diacid])PILPPTNVGSNTX-NH2
modifications: disulfide 1-6 (inferred); not fully specified (residue 36); printed as CNTATCATQRLADFLRHSSNNLKPILPPTNVGSNT-trans-Hyp-NH2
B2: PD053 (peptide)
peptide: CNTATCATQRLAEFLRHSSNNLK([γGlu-C20 diacid])PILPPTNVGSNTX-NH2
modifications: disulfide 1-6 (inferred); not fully specified (residue 36); printed as CNTATCATQRLAEFLRHSSNNLKPILPPTNVGSNT-trans-Hyp-NH2

Target: T1, human amylin receptor (AMY3) on …
Experiment: cell-based or functional assay

Binder	EC50, CRE-luciferase assay
RCNTATCATQRLADFLRHSSNNLK([γGlu-C20 diacid])PILPPTNVGSNT[Aze]-NH2 (disulfide 2-7 (inferred)) [PD060]	0.246 nM
RCNTATCATQRLAEFL[Orn]HSSNNLK([γGlu-C20 diacid])PILPPTNVGSNTP-NH2 (disulfide 2-7 (inferred)) [PD046]	1.68 nM
RCNTATCATQRLAEFLRHSSNNLK([γGlu-C20 diacid])PILPPTNVGSNT[cis‑Hyp]-NH2 (disulfide 2-7 (inferred)) [PD055]	0.909 nM
RCNTATCATQRLA[Aad]FLRHSSNNLK([γGlu-C20 diacid])PILPPTNVGSNTP-NH2 (disulfide 2-7 (inferred)) [PD043]	1.13 nM
RCNTATCATQRLAEFLRHSSNNLK([γGlu-C20 diacid])PILPPTNVGSNTP-NH2 (disulfide 2-7 (inferred)) [PD047]	0.073 nM
RCNTATCATQRLADFLRHSSNNLK([γGlu-C20 diacid])PILPPTNVGSNTP-NH2 (disulfide 2-7 (inferred)) [PD048]	0.047 nM
B1	0.049 nM
K([γGlu-C20 diacid])CNTATCATQRLADFLRHSSNNLGPILPPTNVGSNT[Hyp]-NH2 (disulfide 2-7 (inferred)) [PD070]	0.038 nM
B2	0.075 nM
RCNTATCATQRLAEFLRHSSNNK([AEEA-AEEA-γGlu-C20 diacid])GPILPPTNVGSNTP-NH2 (disulfide 2-7 (inferred)) [PD003]	0.14 nM
CNTATCATQRLADFLRHSSNNLK([γGlu-C20 diacid])PILPPTNVGSNTP-NH2 (disulfide 1-6 (inferred)) [PD050]	0.098 nM
{C20 diacid-βAsp-AEEA-AEEA}-KCNTATCATQRLADFLRHSSNNLKPILPPTNVGSNTP-NH2 (disulfide 2-7 (inferred)) [PD196]	0.064 nM
{C20 diacid-γGlu}-KCNTATCATQRLADFLRHSSNNFGPILPPTNVGSNT[Hyp]-NH2 (disulfide 2-7 (inferred)) [PD067]	0.034 nM
{C20 diacid-γGlu}-RCNTATCATQRLADFLRHSSNNLRPILPPTNVGSNTP-NH2 (disulfide 2-7 (inferred)) [PD197]	0.025 nM
RCNTATCATQRLAEFLRHSSNNLK([γGlu-C20 diacid])PILPPTNVGSNT[αMeP]-NH2 (disulfide 2-7 (inferred)) [PD063]	0.101 nM
{C20 diacid-γGlu}-KGGGGRCNTATCATQRLADFLRHSSNNLRPILPPTNVGSNTP-NH2 (disulfide 7-12 (inferred)) [PD198]	0.029 nM
{C20 diacid-γGlu}-KCNTATCATQRLADFLRHSSNNLGPILPPTNVGSNT[Hyp]-NH2 (disulfide 2-7 (inferred)) [PD069]	0.039 nM
RCNTATCATQRLA[Dab]FLRHSSNNLK([γGlu-C20 diacid])PILPPTNVGSNTP-NH2 (disulfide 2-7 (inferred)) [PD044]	2.62 nM

Binder	EC50, CRE-luciferase assay
RCNTATCATQRLAEFLRHSSNNLK([γGlu-C20 diacid])PILPPTNVGSNT[Pip′]-NH2 (disulfide 2-7 (inferred)) [PD057]	0.793 nM
RCNTATCATQRLAEFLRHSSNNLK([AEEA-AEEA-γGlu-C20 diacid])PILPPTNVGSNTP-NH2 (disulfide 2-7 (inferred)) [PD004]	0.102 nM
RCNTATCATQRLAEFLRHSSNNLK([γGlu-C20 diacid])PILPPTNVGSNT[3‑Am‑Pro]-NH2 (disulfide 2-7 (inferred)) [PD061]	0.815 nM
RCNTATCATQRLAEFLRHSSNK([AEEA-AEEA-γGlu-C20 diacid])LGPILPPTNVGSNTP-NH2 (disulfide 2-7 (inferred)) [PD002]	0.119 nM
{C20 diacid-AEEA-AEEA}-DKCNTATCATQRLADFLRHSSNNLKPILPPTNVGSNTP-NH2 (disulfide 3-8 (inferred)) [PD194]	0.074 nM
{C20 diacid-βAsp-AEEA-AEEA}-KCNTATCATQRLADFLRHSSNNLKPILPPTNVGSNTP-NH2 (disulfide 2-7 (inferred)) [PD195]	0.025 nM
RCNTATCATQRLADFLRHSSNNLK([γGlu-C20 diacid])PILPPTNVGSNT[3‑Am‑Pro]-NH2 (disulfide 2-7 (inferred)) [PD062]	0.374 nM
RCNTATCATQRLADFLRHSSNNLK([γGlu-C20 diacid])PILPPTNVGSNT[αMeP]-NH2 (disulfide 2-7 (inferred)) [PD064]	0.055 nM
K([γGlu-C20 diacid])CNTATCATQRLAEFLRHSSNNFGPILPPTNVGSNTP-NH2 (ends and bridges not checked) [PD066]	0.044 nM
RCNTATCATQRLAEFLRHSSNNLK([γGlu-C20 diacid])PILPPTNVGSNT[Aze]-NH2 (disulfide 2-7 (inferred)) [PD059]	0.939 nM
{C20 diacid-AEEA-AEEA-Inp′}-KCNTATCATQRLADFLRHSSNNLKPILPPTNVGSNTP-NH2 (disulfide 2-7 (inferred)) [PD192]	0.087 nM
CNTATCATQRLAEFLRHSSNNLK([γGlu-C20 diacid])PILPPTNVGSNTP-NH2 (disulfide 1-6 (inferred)) [PD049]	0.215 nM
RCNTATCATQRLADFLRHSSNNLK([γGlu-C20 diacid])PILPPTNVGSNT[cis‑Hyp]-NH2 (disulfide 2-7 (inferred)) [PD056]	0.586 nM
RCNTATCATQRLA[Dap]FLRHSSNNLK([γGlu-C20 diacid])PILPPTNVGSNTP-NH2 (disulfide 2-7 (inferred)) [PD045]	0.364 nM
K([γGlu-C20 diacid])CNTATCATQRLADFLRHSSNNFGPILPPTNVGSNT[Hyp]-NH2 (disulfide 2-7 (inferred)) [PD068]	0.032 nM
RCNTATCATQRLADFLRHSSNNLK([γGlu-C20 diacid])PILPPTNVGSNT[Pip′]-NH2 (disulfide 2-7 (inferred)) [PD058]	0.319 nM
{C20 diacid}-D[AEEA][AEEA]KCNTATCATQRLADFLRHSSNNLKPILPPTNVGSNTP-NH2 (disulfide 5-10 (inferred)) [PD193]	0.074 nM
